Results reported in patent US20180155451A1 (published 2018).

T1: FcγRIIa R (human, UniProt P12318 34-217)
T1 construct: extracellular domain; also called FcgRIIa R type; 2aR
T1 sequence (looked up): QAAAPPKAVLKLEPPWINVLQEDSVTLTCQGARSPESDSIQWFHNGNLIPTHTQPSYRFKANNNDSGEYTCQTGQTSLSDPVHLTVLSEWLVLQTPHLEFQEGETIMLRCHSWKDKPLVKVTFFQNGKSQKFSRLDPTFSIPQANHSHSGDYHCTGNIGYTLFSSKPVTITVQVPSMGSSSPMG

B1: GpH7-B3 variant N325_06M/GpL16-k0 (antibody, human IgG1, kappa)
heavy: not shown
light: DIVMTQSPLSLPVTPGEPASISCQASESLVHSNRNTYLHWYLQKPGQSPQLLIYKVSNRFSGVPDRFSGSGSGTDFTLKISRVEAEDVGVYYCSQNTHVPPTFGQGTKVEIERTVAAPSVFIFPPSDEQLKSGTASVVCLLNNFYPREAKVQWKVDNALQSGNSQESVTEQDSKDSTYSLSSTLTLSKADYEKHKVYACEVTHQGLSSPVTKSFNRGEC
notes: also called Ho Ab N325_06M
B2: GpH7-B3 variant G237_13S/GpL16-k0 (antibody, human IgG1, kappa)
heavy: not shown
light: B1 light
notes: also called Ho Ab G237_13S
B3: GpH7-A5/GpH7-B3 variant P331_15Y/GpL16-k0 (antibody, human IgG1, kappa)
heavy 1: not shown
heavy 2: not shown
light: B1 light
notes: also called He Ab P331_15Y
B4: GpH7-A5/GpH7-B3 variant N325_14T/GpL16-k0 (antibody, human IgG1, kappa)
heavy 1: not shown
heavy 2: not shown
light: B1 light
notes: also called He Ab N325_14T
B5: GpH7-B3 variant E333_05P/GpL16-k0 (antibody, human IgG1, kappa)
heavy: not shown
light: B1 light
notes: also called Ho Ab E333_05P
B6: GpH7-B3 variant G237_02A/GpL16-k0 (antibody, human IgG1, kappa)
heavy: not shown
light: B1 light
notes: also called Ho Ab G237_02A
B7: GpH7-A5/GpH7-B3 variant P238_06M/GpL16-k0 (antibody, human IgG1, kappa)
heavy 1: not shown
heavy 2: not shown
light: B1 light
notes: also called He Ab P238_06M
B8: GpH7-B3 variant A330_11K/GpL16-k0 (antibody, human IgG1, kappa)
heavy: not shown
light: B1 light
notes: also called Ho Ab A330_11K
B9: GpH7-A5/GpH7-B3 variant N325_10E/GpL16-k0 (antibody, human IgG1, kappa)
heavy 1: not shown
heavy 2: not shown
light: B1 light
notes: also called He Ab N325_10E
B10: GpH7-B3 variant A330_19Q/GpL16-k0 (antibody, human IgG1, kappa)
heavy: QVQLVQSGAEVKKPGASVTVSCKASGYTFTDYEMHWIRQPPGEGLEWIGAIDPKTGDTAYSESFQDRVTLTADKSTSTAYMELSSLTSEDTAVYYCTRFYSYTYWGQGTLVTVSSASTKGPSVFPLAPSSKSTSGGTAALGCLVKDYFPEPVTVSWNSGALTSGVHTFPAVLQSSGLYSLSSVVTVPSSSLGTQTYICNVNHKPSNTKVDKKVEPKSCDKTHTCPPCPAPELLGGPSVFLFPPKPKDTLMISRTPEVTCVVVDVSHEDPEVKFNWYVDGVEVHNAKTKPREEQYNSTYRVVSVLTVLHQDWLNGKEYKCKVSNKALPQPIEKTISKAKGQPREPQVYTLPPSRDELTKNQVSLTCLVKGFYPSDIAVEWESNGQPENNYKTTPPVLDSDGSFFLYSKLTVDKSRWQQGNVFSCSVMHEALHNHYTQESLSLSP
light: B1 light
notes: also called Ho Ab A330_19Q
B11: GpH7-A5/GpH7-B3 variant P331_04F/GpL16-k0 (antibody, human IgG1, kappa)
heavy 1: not shown
heavy 2: not shown
light: B1 light
notes: also called He Ab P331_04F
B12: GpH7-B3 variant A330_15Y/GpL16-k0 (antibody, human IgG1, kappa)
heavy: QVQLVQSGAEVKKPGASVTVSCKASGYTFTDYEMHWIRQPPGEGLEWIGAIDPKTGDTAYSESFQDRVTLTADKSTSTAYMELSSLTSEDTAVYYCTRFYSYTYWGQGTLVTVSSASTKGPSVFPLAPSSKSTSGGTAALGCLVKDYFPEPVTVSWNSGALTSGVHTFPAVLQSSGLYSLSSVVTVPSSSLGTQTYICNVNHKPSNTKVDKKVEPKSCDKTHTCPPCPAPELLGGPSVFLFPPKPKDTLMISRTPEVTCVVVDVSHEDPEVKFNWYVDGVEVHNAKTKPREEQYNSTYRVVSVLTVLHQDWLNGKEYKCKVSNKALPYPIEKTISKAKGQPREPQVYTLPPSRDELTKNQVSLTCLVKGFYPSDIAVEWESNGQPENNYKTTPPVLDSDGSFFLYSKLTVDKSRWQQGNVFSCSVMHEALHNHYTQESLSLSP
light: B1 light
notes: also called Ho Ab A330_15Y
B13: GpH7-B3 variant H268_01G/GpL16-k0 (antibody, human IgG1, kappa)
heavy: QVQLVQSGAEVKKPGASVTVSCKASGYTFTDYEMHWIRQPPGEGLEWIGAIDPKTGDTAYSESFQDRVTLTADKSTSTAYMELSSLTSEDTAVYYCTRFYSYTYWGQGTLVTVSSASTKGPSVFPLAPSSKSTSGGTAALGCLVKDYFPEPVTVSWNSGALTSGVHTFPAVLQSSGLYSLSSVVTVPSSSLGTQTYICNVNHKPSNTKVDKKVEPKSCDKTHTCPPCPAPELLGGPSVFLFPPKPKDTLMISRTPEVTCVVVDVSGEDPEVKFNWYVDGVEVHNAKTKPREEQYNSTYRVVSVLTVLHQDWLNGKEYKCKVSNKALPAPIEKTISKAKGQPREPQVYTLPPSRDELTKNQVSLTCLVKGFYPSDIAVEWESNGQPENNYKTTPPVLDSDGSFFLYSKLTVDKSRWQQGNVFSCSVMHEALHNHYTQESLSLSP
light: B1 light
notes: also called Ho Ab H268_01G
B14: GpH7-B3 variant G236_14T/GpL16-k0 (antibody, human IgG1, kappa)
heavy: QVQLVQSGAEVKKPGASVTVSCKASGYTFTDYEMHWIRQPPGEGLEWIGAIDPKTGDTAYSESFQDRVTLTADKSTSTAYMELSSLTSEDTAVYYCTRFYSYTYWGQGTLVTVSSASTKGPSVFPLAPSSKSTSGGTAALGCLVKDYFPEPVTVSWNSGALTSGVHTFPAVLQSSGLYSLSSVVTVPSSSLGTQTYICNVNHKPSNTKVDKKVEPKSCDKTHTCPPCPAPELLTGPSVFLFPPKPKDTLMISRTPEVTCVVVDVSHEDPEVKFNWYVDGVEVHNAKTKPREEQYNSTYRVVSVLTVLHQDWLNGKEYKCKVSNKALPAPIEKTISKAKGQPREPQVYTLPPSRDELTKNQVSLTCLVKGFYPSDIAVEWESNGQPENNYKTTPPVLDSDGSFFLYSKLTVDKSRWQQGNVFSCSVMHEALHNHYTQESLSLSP
light: B1 light
notes: also called Ho Ab G236_14T
B15: GpH7-B3 variant A327_10E/GpL16-k0 (antibody, human IgG1, kappa)
heavy: not shown
light: B1 light
notes: also called Ho Ab A327_10E
B16: GpH7-B3 variant G237_19Q/GpL16-k0 (antibody, human IgG1, kappa)
heavy: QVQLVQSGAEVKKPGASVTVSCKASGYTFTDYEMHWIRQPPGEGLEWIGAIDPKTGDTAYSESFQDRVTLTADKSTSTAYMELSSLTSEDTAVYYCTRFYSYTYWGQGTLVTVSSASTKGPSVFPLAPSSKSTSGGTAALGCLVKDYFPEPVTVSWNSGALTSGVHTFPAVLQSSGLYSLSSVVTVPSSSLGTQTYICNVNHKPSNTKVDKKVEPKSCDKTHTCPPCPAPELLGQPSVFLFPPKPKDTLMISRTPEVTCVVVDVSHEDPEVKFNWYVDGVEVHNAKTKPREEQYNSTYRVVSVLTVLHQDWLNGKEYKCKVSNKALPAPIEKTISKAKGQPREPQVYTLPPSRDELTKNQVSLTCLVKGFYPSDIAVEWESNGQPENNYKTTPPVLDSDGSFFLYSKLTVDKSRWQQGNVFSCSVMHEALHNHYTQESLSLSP
light: B1 light
notes: also called Ho Ab G237_19Q
B17: GpH7-A5/GpH7-B3 variant S267_03V/GpL16-k0 (antibody, human IgG1, kappa)
heavy 1: not shown
heavy 2: not shown
light: B1 light
notes: also called He Ab S267_03V
B18: GpH7-A5/GpH7-B3 variant N325_09D/GpL16-k0 (antibody, human IgG1, kappa)
heavy 1: not shown
heavy 2: not shown
light: B1 light
notes: also called He Ab N325_09D
B19: GpH7-B3 variant G237_10E/GpL16-k0 (antibody, human IgG1, kappa)
heavy: not shown
light: B1 light
notes: also called Ho Ab G237_10E
B20: GpH7-B3 variant G237_06M/GpL16-k0 (antibody, human IgG1, kappa)
heavy: not shown
light: B1 light
notes: also called Ho Ab G237_06M
B21: GpH7-B3 variant E333_15Y/GpL16-k0 (antibody, human IgG1, kappa)
heavy: not shown
light: B1 light
notes: also called Ho Ab E333_15Y
B22: GpH7-B3 variant G237_20W/GpL16-k0 (antibody, human IgG1, kappa)
heavy: not shown
light: B1 light
notes: also called Ho Ab G237_20W
B23: GpH7-B3 variant E333_08L/GpL16-k0 (antibody, human IgG1, kappa)
heavy: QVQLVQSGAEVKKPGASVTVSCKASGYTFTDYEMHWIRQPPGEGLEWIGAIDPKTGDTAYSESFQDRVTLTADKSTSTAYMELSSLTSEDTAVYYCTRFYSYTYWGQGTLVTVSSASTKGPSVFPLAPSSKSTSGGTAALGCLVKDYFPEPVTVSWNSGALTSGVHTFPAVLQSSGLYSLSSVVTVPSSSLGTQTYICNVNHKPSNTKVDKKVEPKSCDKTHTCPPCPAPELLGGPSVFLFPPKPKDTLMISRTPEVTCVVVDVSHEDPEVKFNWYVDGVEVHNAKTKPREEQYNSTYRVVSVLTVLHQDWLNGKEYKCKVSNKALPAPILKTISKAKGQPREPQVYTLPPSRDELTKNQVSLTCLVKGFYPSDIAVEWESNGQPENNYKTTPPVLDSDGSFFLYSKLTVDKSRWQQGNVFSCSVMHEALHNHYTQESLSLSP
light: B1 light
notes: also called Ho Ab E333_08L
B24: GpH7-B3 variant A330_12R/GpL16-k0 (antibody, human IgG1, kappa)
heavy: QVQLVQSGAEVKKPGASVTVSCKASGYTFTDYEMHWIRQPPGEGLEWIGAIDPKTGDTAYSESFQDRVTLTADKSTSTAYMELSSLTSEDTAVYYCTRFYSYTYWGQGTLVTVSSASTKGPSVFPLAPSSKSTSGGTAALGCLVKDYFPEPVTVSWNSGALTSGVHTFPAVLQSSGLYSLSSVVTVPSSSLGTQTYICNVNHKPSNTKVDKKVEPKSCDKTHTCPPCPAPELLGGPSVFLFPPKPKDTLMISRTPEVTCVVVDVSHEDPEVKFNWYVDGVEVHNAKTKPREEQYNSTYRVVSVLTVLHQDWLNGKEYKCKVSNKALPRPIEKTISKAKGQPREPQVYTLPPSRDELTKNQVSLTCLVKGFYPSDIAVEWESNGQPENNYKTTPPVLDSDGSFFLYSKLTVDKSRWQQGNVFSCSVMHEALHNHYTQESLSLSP
light: B1 light
notes: also called Ho Ab A330_12R
B25: GpH7-B3 variant E269_09D/GpL16-k0 (antibody, human IgG1, kappa)
heavy: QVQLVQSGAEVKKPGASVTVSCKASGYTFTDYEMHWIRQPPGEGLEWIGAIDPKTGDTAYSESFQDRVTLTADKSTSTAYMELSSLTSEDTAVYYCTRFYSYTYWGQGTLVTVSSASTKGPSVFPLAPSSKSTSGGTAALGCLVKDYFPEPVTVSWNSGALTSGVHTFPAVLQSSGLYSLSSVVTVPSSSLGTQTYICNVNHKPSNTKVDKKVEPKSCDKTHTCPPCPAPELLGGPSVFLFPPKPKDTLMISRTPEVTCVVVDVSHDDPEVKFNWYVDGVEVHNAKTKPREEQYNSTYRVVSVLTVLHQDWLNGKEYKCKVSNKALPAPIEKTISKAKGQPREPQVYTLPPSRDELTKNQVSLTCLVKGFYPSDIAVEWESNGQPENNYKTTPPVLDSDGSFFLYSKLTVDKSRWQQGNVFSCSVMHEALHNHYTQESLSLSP
light: B1 light
notes: also called Ho Ab E269_09D
B26: GpH7-B3 variant E333_09D/GpL16-k0 (antibody, human IgG1, kappa)
heavy: not shown
light: B1 light
notes: also called Ho Ab E333_09D
B27: GpH7-B3 variant A330_01G/GpL16-k0 (antibody, human IgG1, kappa)
heavy: not shown
light: B1 light
notes: also called Ho Ab A330_01G
B28: GpH7-A5/GpH7-B3 variant P271_08L/GpL16-k0 (antibody, human IgG1, kappa)
heavy 1: not shown
heavy 2: not shown
light: B1 light
notes: also called He Ab P271_08L
B29: GpH7-A5/GpH7-B3 variant P331_20W/GpL16-k0 (antibody, human IgG1, kappa)
heavy 1: not shown
heavy 2: not shown
light: B1 light
notes: also called He Ab P331_20W
B30: GpH7-B3 variant H268_03V/GpL16-k0 (antibody, human IgG1, kappa)
heavy: not shown
light: B1 light
notes: also called Ho Ab H268_03V
B31: GpH7-A5/GpH7-B3 variant N325_20W/GpL16-k0 (antibody, human IgG1, kappa)
heavy 1: not shown
heavy 2: not shown
light: B1 light
notes: also called He Ab N325_20W
B32: GpH7-A5/GpH7-B3 variant P331_16H/GpL16-k0 (antibody, human IgG1, kappa)
heavy 1: not shown
heavy 2: not shown
light: B1 light
notes: also called He Ab P331_16H
B33: GpH7-B3 variant G237_09D/GpL16-k0 (antibody, human IgG1, kappa)
heavy: not shown
light: B1 light
notes: also called Ho Ab G237_09D
B34: GpH7-A5/GpH7-B3 variant S239_10E/GpL16-k0 (antibody, human IgG1, kappa)
heavy 1: not shown
heavy 2: not shown
light: B1 light
notes: also called He Ab S239_10E
B35: GpH7-B3 variant G237_04F/GpL16-k0 (antibody, human IgG1, kappa)
heavy: not shown
light: B1 light
notes: also called Ho Ab G237_04F
B36: GpH7-A5/GpH7-B3 variant P331_02A/GpL16-k0 (antibody, human IgG1, kappa)
heavy 1: not shown
heavy 2: not shown
light: B1 light
notes: also called He Ab P331_02A
B37: GpH7-A5/GpH7-B3 variant P238_04F/GpL16-k0 (antibody, human IgG1, kappa)
heavy 1: not shown
heavy 2: not shown
light: B1 light
notes: also called He Ab P238_04F
B38: GpH7-B3 variant E333_04F/GpL16-k0 (antibody, human IgG1, kappa)
heavy: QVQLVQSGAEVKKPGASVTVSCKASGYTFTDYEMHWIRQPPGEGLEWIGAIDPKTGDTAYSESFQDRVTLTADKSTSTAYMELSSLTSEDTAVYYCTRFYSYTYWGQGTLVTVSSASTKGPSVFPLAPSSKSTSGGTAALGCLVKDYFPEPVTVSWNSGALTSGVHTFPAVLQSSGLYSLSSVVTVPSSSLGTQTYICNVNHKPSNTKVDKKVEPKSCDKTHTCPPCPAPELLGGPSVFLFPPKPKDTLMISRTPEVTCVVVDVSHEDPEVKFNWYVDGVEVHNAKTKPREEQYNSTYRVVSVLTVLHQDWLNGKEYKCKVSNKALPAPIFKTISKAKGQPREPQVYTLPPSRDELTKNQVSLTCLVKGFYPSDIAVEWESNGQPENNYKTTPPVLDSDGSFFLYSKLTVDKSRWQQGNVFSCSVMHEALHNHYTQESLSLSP
light: B1 light
notes: also called Ho Ab E333_04F
B39: GpH7-A5/GpH7-B3 variant S239_08L/GpL16-k0 (antibody, human IgG1, kappa)
heavy 1: not shown
heavy 2: not shown
light: B1 light
notes: also called He Ab S239_08L
B40: GpH7-B3 variant H268_05P/GpL16-k0 (antibody, human IgG1, kappa)
heavy: not shown
light: B1 light
notes: also called Ho Ab H268_05P
B41: GpH7-A5/GpH7-B3 variant P238_03V/GpL16-k0 (antibody, human IgG1, kappa)
heavy 1: not shown
heavy 2: not shown
light: B1 light
notes: also called He Ab P238_03V
B42: GpH7-A5/GpH7-B3 variant P238_09D/GpL16-k0 (antibody, human IgG1, kappa)
heavy 1: not shown
heavy 2: not shown
light: B1 light
notes: also called He Ab P238_09D
B43: GpH7-B3 variant A330_05P/GpL16-k0 (antibody, human IgG1, kappa)
heavy: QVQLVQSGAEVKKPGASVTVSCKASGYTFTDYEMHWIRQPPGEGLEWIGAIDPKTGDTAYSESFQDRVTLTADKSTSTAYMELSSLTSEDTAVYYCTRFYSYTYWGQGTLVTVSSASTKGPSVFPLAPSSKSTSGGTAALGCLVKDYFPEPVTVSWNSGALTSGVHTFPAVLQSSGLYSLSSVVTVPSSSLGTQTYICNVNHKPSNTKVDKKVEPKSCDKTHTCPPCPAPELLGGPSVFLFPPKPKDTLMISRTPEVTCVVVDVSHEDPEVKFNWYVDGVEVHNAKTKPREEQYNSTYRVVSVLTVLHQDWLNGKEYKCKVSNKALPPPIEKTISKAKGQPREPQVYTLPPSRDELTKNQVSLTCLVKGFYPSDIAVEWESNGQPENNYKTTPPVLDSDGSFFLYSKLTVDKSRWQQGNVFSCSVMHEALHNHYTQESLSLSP
light: B1 light
notes: also called Ho Ab A330_05P
B44: GpH7-A5/GpH7-B3 variant S239_18N/GpL16-k0 (antibody, human IgG1, kappa)
heavy 1: not shown
heavy 2: not shown
light: B1 light
notes: also called He Ab S239_18N
B45: GpH7-A5/GpH7-B3 variant N325_13S/GpL16-k0 (antibody, human IgG1, kappa)
heavy 1: not shown
heavy 2: not shown
light: B1 light
notes: also called He Ab N325_13S
B46: GpH7-B3 variant G237_08L/GpL16-k0 (antibody, human IgG1, kappa)
heavy: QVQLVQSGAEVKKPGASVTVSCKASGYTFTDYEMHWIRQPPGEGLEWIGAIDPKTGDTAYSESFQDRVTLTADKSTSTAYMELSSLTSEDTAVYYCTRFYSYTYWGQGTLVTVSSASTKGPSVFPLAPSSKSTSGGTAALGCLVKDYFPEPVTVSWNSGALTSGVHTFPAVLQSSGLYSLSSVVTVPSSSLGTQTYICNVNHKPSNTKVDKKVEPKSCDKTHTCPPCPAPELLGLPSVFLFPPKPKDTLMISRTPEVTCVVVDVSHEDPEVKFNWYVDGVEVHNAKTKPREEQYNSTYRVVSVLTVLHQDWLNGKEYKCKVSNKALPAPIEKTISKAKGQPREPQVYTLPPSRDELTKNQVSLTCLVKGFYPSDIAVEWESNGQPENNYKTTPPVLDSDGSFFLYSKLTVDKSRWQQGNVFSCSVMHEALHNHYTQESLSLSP
light: B1 light
notes: also called Ho Ab G237_08L
B47: GpH7-A5/GpH7-B3 variant N325_15Y/GpL16-k0 (antibody, human IgG1, kappa)
heavy 1: not shown
heavy 2: not shown
light: B1 light
notes: also called He Ab N325_15Y
B48: GpH7-B3 variant A327_09D/GpL16-k0 (antibody, human IgG1, kappa)
heavy: not shown
light: B1 light
notes: also called Ho Ab A327_09D
B49: GpH7-B3 variant G237_18N/GpL16-k0 (antibody, human IgG1, kappa)
heavy: not shown
light: B1 light
notes: also called Ho Ab G237_18N
B50: GpH7-B3 variant E333_07I/GpL16-k0 (antibody, human IgG1, kappa)
heavy: not shown
light: B1 light
notes: also called Ho Ab E333_07I
B51: GpH7-B3 variant H268_11K/GpL16-k0 (antibody, human IgG1, kappa)
heavy: not shown
light: B1 light
notes: also called Ho Ab H268_11K

Tests used:
FcγRIIa R [1] = target: T1, FcγRIIa R; assay: SPR Biacore; vs GpH7-B3/GpL16-k0 =100
Method: Analysis of interaction between objective antibody and the FcγR was carried out using Biacore T100 (GE Healthcare). HBS-EP+ (GE Healthcare) was used as the running buffer, and the measurement temperature was set to 25° C. Chips produced by immobilizing the antigen peptide by the amine coupling method to a Series S Sencor Chip CM5 (GE Healthcare), or alternatively, chips produced by allowing preliminarily biotinylated antigen peptides to interact with and immobilize onto a Series S Sensor Chip SA (certified) (GE Healthcare) were used. Antibodies of interest were captured onto an antigen peptide-immobilized chip, and allowed to interact to each FcγR diluted with running buffer. To regenerate and repeatedly use the chip, the antibodies captured on the chip were washed off by reacting 10 mM glycine-HCl, pH 1.5.
The FcγR-binding activity of each antibody was assessed primarily using as an indicator the FcγR-binding activity and dissociation constant for FcγR.

FcγRIIa R [2] = target: T1, FcγRIIa R; assay: SPR Biacore; vs GpH7-A5/GpH7-B3/GpL16-k0 =100

Binder | Ho/Con_2aR (FcγRIIa R [1]) | He/Con_2aR (FcγRIIa R [2])
B1 | 124 % of control | 
B2 | 44.4 % of control | 
B3 |  | 112 % of control
B4 |  | 105 % of control
B5 | 99.9 % of control | 
B6 | 84 % of control | 
B7 |  | 139 % of control
B8 | 106 % of control | 
B9 |  | 105 % of control
B10 | 99.1 % of control | 
B11 |  | 111 % of control
B12 | 87.5 % of control | 
B13 | 122 % of control | 
B14 | 80 % of control | 
B15 | 104 % of control | 
B16 | 14.3 % of control | 
B17 |  | 116 % of control
B18 |  | 116 % of control
B19 | 22.5 % of control | 
B20 | 55.3 % of control | 
B21 | 96.2 % of control | 
B22 | 107 % of control | 
B23 | 97.1 % of control | 
B24 | 101 % of control | 
B25 | 103 % of control | 
B26 | 96.5 % of control | 

Binder | Ho/Con_2aR (FcγRIIa R [1]) | He/Con_2aR (FcγRIIa R [2])
B27 | 106 % of control | 
B28 |  | 104 % of control
B29 |  | 110 % of control
B30 | 105 % of control | 
B31 |  | 134 % of control
B32 |  | 114 % of control
B33 | 73.1 % of control | 
B34 |  | 135 % of control
B35 | 113 % of control | 
B36 |  | 106 % of control
B37 |  | 174 % of control
B38 | 92.4 % of control | 
B39 |  | 122 % of control
B40 | 95.9 % of control | 
B41 |  | 120 % of control
B42 |  | 148 % of control
B43 | 36.2 % of control | 
B44 |  | 111 % of control
B45 |  | 143 % of control
B46 | 56.6 % of control | 
B47 |  | 101 % of control
B48 | 120 % of control | 
B49 | 73.6 % of control | 
B50 | 98.3 % of control | 
B51 | 93.4 % of control | 
